From doi:10.1101/2023.12.03.569830 (bioRxiv, 2023)

Molecular target: T1, surface-exposed domain of TraN (TraN^surf), N-terminal hexa-histidine tag (Salmonella enterica serovar Typhimurium …)
T1 chain: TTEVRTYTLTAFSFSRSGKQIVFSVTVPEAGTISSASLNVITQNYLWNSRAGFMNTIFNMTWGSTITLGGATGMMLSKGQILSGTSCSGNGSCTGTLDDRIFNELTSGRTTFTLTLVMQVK
Assay: ITC

B1: Nb^traN (TraN-specific nanobody), C-terminal hexa-histidine tag (VHH)
VHH: QVQLQESGGGLVQAGGSLRLSCAASGTIFDGVDMGWYRQAPGKEREFVAGITAGSSTYYADSVKGRFTISRDNAKNTVYLQMNSLKPEDTAVYYCAAYPLDEIGSHDPHSYWGQGTQVTVSS
B1 showed a Kd of 4.45 µM.
